According to PMC9910500:

Molecular target: endogenous p32 (ASF/SF2 splicing factor-associated protein) (human (endogenous in HEK293T)) (UniProt Q07021)
Experiment: co-IP

UniProt Q07021, sequence (Q07021 74-282): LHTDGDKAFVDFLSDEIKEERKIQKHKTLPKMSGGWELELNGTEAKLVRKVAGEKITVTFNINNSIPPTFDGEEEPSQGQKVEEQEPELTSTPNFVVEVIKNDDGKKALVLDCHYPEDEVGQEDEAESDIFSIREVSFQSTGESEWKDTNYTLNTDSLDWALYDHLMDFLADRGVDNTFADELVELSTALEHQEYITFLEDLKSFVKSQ

increase of RNAPII co-precipitated with p32 in the presence of Tat: 50%
Substance: RNA polymerase II (RNAPII) (complex)
